{"source": "patent US7585836B2", "about": "“Bi-lateral local renal delivery for treating congestive heart failure and for BNP therapy” (priority 2004, dated 2009)", "key": {"[1]": {"assay": "Pharmacokinetics: serum BNP levels after intra-renal (IR) versus intravenous (IV) BNP administration in the canine model", "format": "in vivo", "details": "for difference between serum BNP levels with IR versus IV infusion at comparable time points: higher with IV", "experimental": "(§1) IR versus IV administration of human recombinant BNP (Natrecor® agent, Scios, Inc., Johnson & Johnson) was compared in the canine model (two animals). IR infusion was achieved using the FlowMedica Benephit™ Infusion System (FlowMedica, Inc.). IV and IR administration was performed in each animal sequentially, and the administration periods were separated by five days to allow for washout and re-acclimation of the animals. IV administration was conducted on the first day in both animals. Other than the route of BNP administration, all other parameters were identical between the IV and IR administration days in both dogs.\n(§2) Canine #1 received a 2 mcg/kg/min bolus of BNP followed immediately by a 0.15 mcg/kg/min BNP infusion for 90 minutes, followed by a 2-hour washout period. Then vasoconstriction was induced via phenylepherine until mean arterial pressure (MAP) was increased by approximately 30% (approximately 1 hour), and then BNP was again administered at 0.15 mcg/kg/min for 90 minutes.\nCanine #2 received a 2 mcg/kg/min BNP bolus followed immediately by a 4-hour continuous infusion of BNP at 0.15 mcg/kg/min.\n(§3) Key endpoints included serum levels of BNP (pharmacokinetics, both animals) following IR and IV BNP administration, and blood pressure response in response IR and IV BNP administration (Canine #1 only)."}, "canine model": {"test_system": "canine model", "assay": "Blood pressure (mean arterial pressure) response to IR and IV BNP during phenylepherine-induced vasoconstriction", "format": "in vivo", "details": "Canine #1, constricted vascular state induced by phenylepherine", "experimental": "as §1, §2, §3"}}, "note": "Several values for one entry are separate records, joined by “and”; a condition that tells them apart may be missing. Identical values can stand only once.", "data": [{"substance": "nesiritide [BNP]", "values": [{"measurement": "difference between serum BNP levels with IR versus IV infusion at comparable time points", "setting": "[1]; Canine #1, 2 mcg/kg/min bolus then 0.15 mcg/kg/min infusion", "value": "75% and 66%"}, {"measurement": "difference between serum BNP levels with IR versus IV infusion at comparable time points", "setting": "[1]; Canine #2, 2 mcg/kg/min bolus then 4-hour infusion at 0.15 mcg/kg/min", "value": "61% and 69%"}, {"measurement": "lower systemic levels with IR than with IV administration of the same dose", "setting": "[1]; both canines, same dose", "value": "61-75%"}, {"measurement": "average reduction of steady-state plasma BNP levels, IR versus systemic (IV) administration", "setting": "[1]; two dogs, given dose IR versus IV", "value": 63, "unit": "%"}, {"measurement": "maximum reduction in mean arterial pressure (MAP)", "setting": "canine model; IR BNP 0.15 mcg/kg/min", "value": 15, "unit": "%"}, {"measurement": "maximum reduction in mean arterial pressure (MAP)", "setting": "canine model; IV BNP 0.15 mcg/kg/min", "value": 50, "unit": "%"}]}]}
